Laboratory results reported in US7442378B2, “Attenuated circovirus” (The University of Melbourne, priority 2001, dated 2008).
Entries after “also recorded” stand apart in the source; their conditions may differ.

Tests used:
[1] = test system: T1, phosphopeptide substrate H-Glu-Asn-Asp-Tyr(PO3H2)-Ile-Asn-Ala-Ser-Leu-OH
T1 sequence: ENDYINASL

[2] = known PTPases, comparison values; cited from earlier work
CAV VP2-GST PTPase = test: Sodium orthovanadate inhibition of PTPase activity; assay type: biochemical, Chicken anaemia virus
Procedure: Stock 1 mM […] was made in distilled water and adjusted to pH 10 with sulphuric acid. Once dissolved, stock […] was added to AB and TB buffer at a ratio of 1:1:1 and adjusted to pH 7. Inhibition studies were conducted with 0.1 mM, 0.01 mM and 0.001 mM of sodium orthovanadate. All other reaction conditions were as described above. Assays were with 10 nmol substrate and 9 μg CAV VP2-GST and were in triplicate for each concentration of inhibitor.

[3] = target: T2, phosphopeptide substrate H-Glu-Asn-Asp-Tyr(PO3H2)-Ile-Asn-Ala-Ser-Leu-OH
T2 chain: ENDYINASL

[4] = test system: peptide substrate ENDY(Pi)INASL; assay type: biochemical
[5] = test system: peptide substrate ENDY(Pi)INASL; test: Enzyme pH optimum of CAV VP2-GST PTPase; assay type: biochemical
Procedure: Triplicate reactions were set up at pH 4, pH 5, pH 6, pH 7, pH 8 and pH 9. Assays were with 10 nmol substrate and 9 μg CAV VP2-GST and all other reaction conditions were as described above. Prior to addition of the malachite green reagent the pH was neutralised to pH 7 with either sulphuric acid or sodium hydroxide.

Q: With TLMV ORF2-GST fusion protein as the molecule, how does the “PTPase activity (steady state)” value [1] read?
A: The value was “The steady state activity was equivalent to that demonstrated for CAV VP2”.

Q: Which Vmax [2] does the source give for “PTP1B: low Mr PTPase cited for comparison [reference compound]” here?
A: The Vmax was 20 000 U/mg min.

Q: With `[Na+].[Na+].[Na+].[O]=[V]([O-])([O-])[O-]` [sodium orthovanadate] as the molecule, how does the “Inhibition of VP2-GST PTPase activity” value (CAV VP2-GST PTPase) read?
A: Its value is “specifically inhibited; also recorded: completely inhibited”.

Q: And the “Orthovanadate concentration giving maximal inhibition of CAV VP2 activity (as low as)” value (CAV VP2-GST PTPase)?
A: The value was 0.001 mM.

B1: CD45: high Mr PTPase from human spleen cited for comparison (protein, UniProt P08575 26-1306, looked up)
Receptor-type …: QSPTPSPTGLTTAKMPSVPLSSDPLPTHTTAFSPASTFERENDFSETTTSLSPDNTSTQVSPDSLDNASAFNTTGVSSVQTPHLPTHADSQTPSAGTDTQTFSGSAANAKLNPTPGSNAISDVPGERSTASTFPTDPVSPLTTTLSLAHHSSAALPARTSNTTITANTSDAYLNASETTTLSPSGSAVISTTTIATTPSKPTCDEKYANITVDYLYNKETKLFTAKLNVNENVECGNNTCTNNEVHNLTECKNASVSISHNSCTAPDKTLILDVPPGVEKFQLHDCTQVEKADTTICLKWKNIETFTCDTQNITYRFQCGNMIFDNKEIKLENLEPEHEYKCDSEILYNNHKFTNASKIIKTDFGSPGEPQIIFCRSEAAHQGVITWNPPQRSFHNFTLCYIKETEKDCLNLDKNLIKYDLQNLKPYTKYVLSLHAYIIAKVQRNGSAAMCHFTTKSAPPSQVWNMTVSMTSDNSMHVKCRPPRDRNGPHERYHLEVEAGNTLVRNESHKNCDFRVKDLQYSTDYTFKAYFHNGDYPGEPFILHHSTSYNSKALIAFLAFLIIVTSIALLVVLYKIYDLHKKRSCNLDEQQELVERDDEKQLMNVEPIHADILLETYKRKIADEGRLFLAEFQSIPRVFSKFPIKEARKPFNQNKNRYVDILPYDYNRVELSEINGDAGSNYINASYIDGFKEPRKYIAAQGPRDETVDDFWRMIWEQKATVIVMVTRCEEGNRNKCAEYWPSMEEGTRAFGDVVVKINQHKRCPDYIIQKLNIVNKKEKATGREVTHIQFTSWPDHGVPEDPHLLLKLRRRVNAFSNFFSGPIVVHCSAGVGRTGTYIGIDAMLEGLEAENKVDVYGYVVKLRRQRCLMVQVEAQYILIHQALVEYNQFGETEVNLSELHPYLHNMKKRDPPSEPSPLEAEFQRLPSYRSWRTQHIGNQEENKSKNRNSNVIPYDYNRVPLKHELEMSKESEHDSDESSDDDSDSEEPSKYINASFIMSYWKPEVMIAAQGPLKETIGDFWQMIFQRKVKVIVMLTELKHGDQEICAQYWGEGKQTYGDIEVDLKDTDKSSTYTLRVFELRHSKRKDSRTVYQYQYTNWSVEQLPAEPKELISMIQVVKQKLPQKNSSEGNKHHKSTPLLIHCRDGSQQTGIFCALLNLLESAETEEVVDIFQVVKALRKARPGMVSTFEQYQFLYDVIASTYPAQNGQVKKNNHQEDKIEFDNEVDKVKQDANCVNPLGAPEKLPEAKEQAEGSEPTSGTEGPEHSVNGPASPALNQGS
Q: Which Vmax [2] does the source give for B1 here?
A: Its Vmax is 1 000 U/mg min.

B2: CAV VP2-GST fusion protein (protein)
chain: MHGNGGQPAAGGSESALSREGQPGPSGAAQGQVISNERSPRRYSTRTINGVQATNKFTAVGNPSLQRDPDWYRWNYSHSIAVWLRECSRSHAKICNCGQFRKHWFQECAGLEDRSTQASLEEAILRPLRVQGKRAKRKLDYHYSQPTPNRKKVYKTVRWQDELADREADFTPSEEDGGTTSSDFDEDINFDIGGDSGIVDELLGRPFTTPAPVRIV
Q: Which “Km (PTPase assay, malachite green, Lineweaver-Burk plot)” value [3] does the source give for B2 here?
A: Its value is “Km to be 16.95 µM”.

Q: What about the “Vmax (PTPase assay, malachite green, Lineweaver-Burk plot)” value [3] of the same molecule?
A: Its value is “Vmax was estimated to be 14 280 U/mg min”.

Q: What about the Vo with 0.001 mM orthovanadate, 10 nmol substrate [3] of the same molecule?
A: Its Vo with 0.001 mM orthovanadate, 10 nmol substrate is 0.002.

Q: What about the Vo with 0.01 mM orthovanadate, 10 nmol substrate [3] of the same molecule?
A: The Vo with 0.01 mM orthovanadate, 10 nmol substrate was 0.

Q: And the Vo with 0.1 mM orthovanadate, 10 nmol substrate [3]?
A: The Vo with 0.1 mM orthovanadate, 10 nmol substrate was 0.

Q: And the Vo without orthovanadate, 10 nmol substrate [3]?
A: The Vo without orthovanadate, 10 nmol substrate was 5.61.

Q: And the mean Vo (nmol) at pH 4, 10 nmol substrate [3]?
A: The mean Vo (nmol) at pH 4, 10 nmol substrate was 1.75 nmol.

Q: And the mean Vo (nmol) at pH 5, 10 nmol substrate [3]?
A: The mean Vo (nmol) at pH 5, 10 nmol substrate was 1.47 nmol.

Q: And the mean Vo (nmol) at pH 6, 10 nmol substrate [3]?
A: Its mean Vo (nmol) at pH 6, 10 nmol substrate is 5.64 nmol.

Q: What about the mean Vo (nmol) at pH 7, 10 nmol substrate [3] of the same molecule?
A: The mean Vo (nmol) at pH 7, 10 nmol substrate was 5.61 nmol.

Q: And the mean Vo (nmol) at pH 8, 10 nmol substrate [3]?
A: The mean Vo (nmol) at pH 8, 10 nmol substrate was 1.83 nmol.

Q: What about the mean Vo (nmol) at pH 9, 10 nmol substrate [3] of the same molecule?
A: Its mean Vo (nmol) at pH 9, 10 nmol substrate is 0 nmol.

B3: VP2-GST: CAV viral protein 2 produced as fusion with glutathione S-transferase in E. coli (protein)
chain: B2 chain
modifications: left off: a dimerising Fc or GST
notes: CAV viral protein 2 produced as fusion with glutathione S-transferase in E. coli
Q: Which results are given for B3?
A: 1/Vmax ([4]; linear regression of double reciprocal plot): 0.060; Vmax ([4]; substrate ENDY(Pi)INASL, Lineweaver-Burk plot, Vo at 1 min): 14 280 U/mg min; mean Vo, PTPase activity ([5]; pH 4, S 10 nmol): 1.746 nmol; mean Vo, PTPase activity ([5]; pH 5, S 10 nmol): 1.474 nmol; mean Vo, PTPase activity ([5]; pH 6, S 10 nmol): 5.636 nmol; mean Vo, PTPase activity ([5]; pH 7, S 10 nmol): 5.612 nmol; mean Vo, PTPase activity ([5]; pH 8, S 10 nmol): 1.829 nmol; mean Vo, PTPase activity ([5]; pH 9, S 10 nmol): 0.000 nmol; pH of optimal PTPase activity ([5]; reactions at pH 4 to pH 9, listed as CAV VP2): 6-7
